Source: US20080279850A1

Tests used:
[1] = molecular target: T1, CD37 (human) (UniProt P11049)
T1 sequence: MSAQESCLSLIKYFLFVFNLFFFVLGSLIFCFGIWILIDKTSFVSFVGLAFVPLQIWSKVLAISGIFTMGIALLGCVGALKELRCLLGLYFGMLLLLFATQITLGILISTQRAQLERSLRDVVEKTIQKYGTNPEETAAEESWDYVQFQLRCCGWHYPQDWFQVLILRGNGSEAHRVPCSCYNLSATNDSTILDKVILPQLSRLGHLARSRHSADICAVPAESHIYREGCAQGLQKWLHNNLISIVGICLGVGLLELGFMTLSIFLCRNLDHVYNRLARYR

[2] = molecular target: T1, CD37 (human); remark: listed apart in the source

| Annexin V Positive, Bjab cells, 20 µg/mL SMIP with goat anti-human IgG crosslinking (Annexin V Positive) [1] | Annexin V-PI staining of Ramos cells after 24 hours [2] [%] | Substance |
| --- | --- | --- |
| 30.6 |  | TRU-016 [G28-1 scFv VH11S (SSC-P)H WCH2 WCH3] (Fc fusion) |
|  | 32.8 | TRU-016, protein A purified (unfractionated) (Fc fusion) |
